The values below come from PMC9352680, “A comprehensive thermodynamic model for RNA binding by the Saccharomyces cerevisiae Pumilio protein PUF4”.

First the molecules themselves.
B1: Ib_S2_P5E.1_K5.1_C5.1_H5.1_[G2C]_A5.1_[T5A]_F5.1_T5.1 (ssRNA)
RNA: UUUGAUUAAUAUGAUAUCGUUCUUUCUUCUAAUAUUAUUCUUUCUCGAUAUCAUAUUAAUCUUU
B2: Ib_S2_P5E.1_K5.1_C5.1_H5.1_[A4C]_A5.1_[A7C]_F5.1_T5.1 (ssRNA)
RNA: B1 RNA with C29G, A31C, A32U, A34C
B3: Ib_S2_P5E.1_K5.1_C5.1_H5.1_A5.1_[T5C]_[A7T]_F5.1_T5.1 (ssRNA)
RNA: B1 RNA with C29G, A32C, A34U
B4: Ib_S2_P5E.1_K5.1_C5.1_H5.1_[A4G]_A5.1_[T5C]_F5.1_T5.1 (ssRNA)
RNA: B1 RNA with C29G, A31G, A32C
B5: Ib_S2_P5E.1_K5.1_C5.1_H5.1_[A4T]_A5.1_[T5C]_F5.1_T5.1 (ssRNA)
RNA: B1 RNA with C29G, A31U, A32C
B6: Ib_S2_P5E.1_K5.1_C5.1_H5.1_[G2C]_A5.1_[T6A]_F5.1_T5.1 (ssRNA)
RNA: B1 RNA with A32U, U33A
B7: Ib_S2_P5E.1_K5.1_C5.1_H5.1_A5.1_[T5C]_[T6A]_F5.1_T5.1 (ssRNA)
RNA: B1 RNA with C29G, A32C, U33A
B8: Ib_S2_P5E.1_K5.1_C5.1_H5.1_[A4C]_A5.1_[A7T]_F5.1_T5.1 (ssRNA)
RNA: B1 RNA with C29G, A31C, A32U, A34U
B9: Ib_S2_P5E.1_K5.1_C5.1_H5.1_[T3C]_A5.1_[T5C]_F5.1_T5.1 (ssRNA)
RNA: B1 RNA with C29G, U30C, A32C
B10: Ia_S2_P5E.1_K5.1_C5.1_H5.1_[T1C]_A5.1_F5.1_T5.1 (ssRNA)
RNA: B1 RNA with U28C, C29G, A32U
B11: Ib_S2_P5E.1_K5.1_C5.1_H5.1_[A4T]_A5.1_[T6A]_F5.1_T5.1 (ssRNA)
RNA: B1 RNA with C29G, A31U, A32U, U33A
B12: Ib_S2_P5E.1_K5.1_C5.1_H5.1_A5.1_[T5G]_[A7C]_F5.1_T5.1 (ssRNA)
RNA: B1 RNA with C29G, A32G, A34C
B13: Ib_S2_P5E.1_K5.1_C5.1_H5.1_[T3C]_A5.1_[T6C]_F5.1_T5.1 (ssRNA)
RNA: B1 RNA with C29G, U30C, A32U, U33C
B14: Ib_S2_P5E.1_K5.1_C5.1_H5.1_[T3C]_A5.1_[A7T]_F5.1_T5.1 (ssRNA)
RNA: B1 RNA with C29G, U30C, A32U, A34U
B15: Ib_S2_P5E.1_K5.1_C5.1_H5.1_[G2T]_A5.1_[A7G]_F5.1_T5.1 (ssRNA)
RNA: B1 RNA with C29U, A32U, A34G
B16: Ia_S2_P5E.1_K5.1_C5.1_H5.1_[T1A]_A5.1_F5.1_T5.1 (ssRNA)
RNA: B1 RNA with U28A, C29G, A32U
B17: Ia_S2_P5E.1_K5.1_C5.1_H5.1_[G2A]_A5.1_F5.1_T5.1 (ssRNA)
RNA: B1 RNA with C29A, A32U
B18: Ib_S2_P5E.1_K5.1_C5.1_H5.1_[A4C]_A5.1_[T5C]_F5.1_T5.1 (ssRNA)
RNA: B1 RNA with C29G, A31C, A32C
B19: Ic_S2_P5E.1_K5.1_C5.1_H5.1_A5.1_[T5A]_[A7G]_F5.1_T5.1 (ssRNA)
RNA: B1 RNA with C29G, A34G
B20: Ib_S2_P5E.1_K5.1_C5.1_H5.1_[A4C]_A5.1_[T5G]_F5.1_T5.1 (ssRNA)
RNA: B1 RNA with C29G, A31C, A32G
B21: Ib_S2_P5E.1_K5.1_C5.1_H5.1_[T3C]_A5.1_[T5G]_F5.1_T5.1 (ssRNA)
RNA: B1 RNA with C29G, U30C, A32G
B22: Ib_S2_P5E.1_K5.1_C5.1_H5.1_[G2T]_A5.1_[T6C]_F5.1_T5.1 (ssRNA)
RNA: B1 RNA with C29U, A32U, U33C
B23: Ib_S2_P5E.1_K5.1_C5.1_H5.1_[A4G]_A5.1_[A7T]_F5.1_T5.1 (ssRNA)
RNA: B1 RNA with C29G, A31G, A32U, A34U
B24: Ib_S2_P5E.1_K5.1_C5.1_H5.1_[T3C]_A5.1_[A7G]_F5.1_T5.1 (ssRNA)
RNA: B1 RNA with C29G, U30C, A32U, A34G
B25: Ib_S2_P5E.1_K5.1_C5.1_H5.1_[A4C]_A5.1_[T5A]_F5.1_T5.1 (ssRNA)
RNA: B1 RNA with C29G, A31C
B26: Ib_S2_P5E.1_K5.1_C5.1_H5.1_[A4T]_A5.1_[T5G]_F5.1_T5.1 (ssRNA)
RNA: B1 RNA with C29G, A31U, A32G
B27: Ib_S2_P5E.1_K5.1_C5.1_H5.1_[A4G]_A5.1_[T6C]_F5.1_T5.1 (ssRNA)
RNA: B1 RNA with C29G, A31G, A32U, U33C
B28: Ib_S2_P5E.1_K5.1_C5.1_H5.1_A5.1_[T5C]_[A7C]_F5.1_T5.1 (ssRNA)
RNA: B1 RNA with C29G, A32C, A34C
B29: Ia_S2_P5E.1_K5.1_C5.1_H5.1_[G2C]_A5.1_F5.1_T5.1 (ssRNA)
RNA: B1 RNA with A32U
B30: Ib_S2_P5E.1_K5.1_C5.1_H5.1_A5.1_[T6G]_[A7T]_F5.1_T5.1 (ssRNA)
RNA: B1 RNA with C29G, A32U, U33G, A34U
B31: Ic_S2_P5E.1_K5.1_C5.1_H5.1_A5.1_[T6G]_[A7C]_F5.1_T5.1 (ssRNA)
RNA: B1 RNA with C29G, A32U, U33G, A34C
B32: Ib_S2_P5E.1_K5.1_C5.1_H5.1_[A4T]_A5.1_[T6C]_F5.1_T5.1 (ssRNA)
RNA: B1 RNA with C29G, A31U, A32U, U33C
B33: Ib_S2_P5E.1_K5.1_C5.1_H5.1_[A4C]_A5.1_[T6A]_F5.1_T5.1 (ssRNA)
RNA: B1 RNA with C29G, A31C, A32U, U33A
B34: Ib_S2_P5E.1_K5.1_C5.1_H5.1_[G2A]_A5.1_[T5G]_F5.1_T5.1 (ssRNA)
RNA: B1 RNA with C29A, A32G
B35: Ib_S2_P5E.1_K5.1_C5.1_H5.1_[G2T]_A5.1_[T5C]_F5.1_T5.1 (ssRNA)
RNA: B1 RNA with C29U, A32C
B36: Ib_S2_P5E.1_K5.1_C5.1_H5.1_[G2A]_A5.1_[T6C]_F5.1_T5.1 (ssRNA)
RNA: B1 RNA with C29A, A32U, U33C
B37: Ia_S2_P5E.1_K5.1_C5.1_H5.1_[A4G]_A5.1_F5.1_T5.1 (ssRNA)
RNA: B1 RNA with C29G, A31G, A32U
B38: Ib_S2_P5E.1_K5.1_C5.1_H5.1_[A4G]_A5.1_[T6A]_F5.1_T5.1 (ssRNA)
RNA: B1 RNA with C29G, A31G, A32U, U33A
B39: Ib_S2_P5E.1_K5.1_C5.1_H5.1_[G2T]_A5.1_[T6A]_F5.1_T5.1 (ssRNA)
RNA: B1 RNA with C29U, A32U, U33A
B40: Ib_S2_P5E.1_K5.1_C5.1_H5.1_A5.1_[T5G]_[A7G]_F5.1_T5.1 (ssRNA)
RNA: B1 RNA with C29G, A32G, A34G

Substitutions are numbered along the chain they refer to. Numbers in names are those of the source.

This data set addresses T1, PUF4 RNA-binding domain (Saccharomyces cerevisiae, UniProt P25339 537-888).
T1 sequence: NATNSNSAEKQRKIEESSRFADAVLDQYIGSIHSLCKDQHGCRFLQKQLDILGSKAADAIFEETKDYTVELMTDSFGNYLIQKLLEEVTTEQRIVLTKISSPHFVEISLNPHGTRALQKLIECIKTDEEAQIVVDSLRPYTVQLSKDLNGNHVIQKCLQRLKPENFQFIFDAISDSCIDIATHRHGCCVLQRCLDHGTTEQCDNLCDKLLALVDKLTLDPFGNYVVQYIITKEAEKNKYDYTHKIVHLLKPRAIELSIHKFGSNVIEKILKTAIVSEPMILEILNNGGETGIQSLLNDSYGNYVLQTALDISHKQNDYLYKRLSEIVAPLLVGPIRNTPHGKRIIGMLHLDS
As to the kind of experiment: Mg; RNA-MaP; 20 mM Na-HEPES pH 7.4, 30 mM KOAc, 0.75 mM MgCl2, 0.1% Tween-20, 5% glycerol, 0.1 mg/mL BSA, 2 mM DTT; 25 C; 0.0125-409.6 nM protein. Conditions: tags: N-His6-TEV cleaved; C-SNAP kept, Cy3B-labelled; label: tethered on chip by stalled RNA polymerase.
ACAAACAGUAUAAAACAAAC (ssRNA) [Ib_S3_P3E.1_K3.1_C3.1_H3.1_[T1A]_A3.1_F3.1_[T7A]_T3.1] displayed a Kd greater than 2300 nM. In the case of ACAAACUCUAUAUUACAAAC (ssRNA) [Ib_S3_P3E.1_K3.1_C3.1_H3.1_[G2C]_A3.1_F3.1_[A8T]_T3.1] it was greater than 2300 nM; in that of B1, 870 nM. In the case of B2 it was 94.3 nM. In the case of B3 it was 1.36 nM; in that of B4, 9.3 nM; in that of B5, 11 nM. For the molecule B6, the Kd is greater than 2300 nM. In the case of B7 it was 1.95 nM; in that of B8, 24.4 nM; in that of B9, 276 nM. In the case of B10 it was 258 nM; in that of B11, 28.9 nM; in that of B12, 9.58 nM.

With B13, the Kd was 531 nM. Compared with the last molecule, the Kd is about 55-fold higher.

Consider B14, for which binding was put at a Kd of 676 nM.

Molecule B15 displayed a Kd greater than 2300 nM. In the case of B16 it was greater than 2300 nM. In the case of B17 it was 267 nM. In the case of B18 it was 22.6 nM; in that of B19, 13.1 nM; in that of B20, 40 nM. Turning to B21, the Kd was found to be 909 nM. This Kd lies about 23-fold higher than the previous one.

Consider B22, for which binding was characterised by a dissociation constant (Kd) of 2030 nM. In the case of B23 it was 10.3 nM. In the case of B24 it was 1600 nM. As for B25, binding was characterised by a dissociation constant (Kd) of 5.71 nM. Against the preceding molecule, the Kd is about 280-fold lower. In the case of B26 it was 6.64 nM; in that of B27, 8.03 nM. In the case of B28 it was 2.13 nM; in that of B29, 2160 nM. In the case of B30 it was 6.35 nM; in that of B31, 6.06 nM; in that of B32, 8.06 nM. For the molecule B33, binding was characterised by a dissociation constant (Kd) of 28.1 nM.

Turning to B34, binding was put at a Kd of 1490 nM.

As to B35, the Kd was greater than 2300 nM. In the case of B36 it was 353 nM; in that of B37, 12.9 nM; in that of B38, 11.9 nM. Take B39: the Kd was 1970 nM. In turn, B40 yielded a Kd of 9.14 nM. In the case of ACAAACUGUCUAAAACAAAC (ssRNA) [Ib_S3_P3E.1_K3.1_C3.1_H3.1_[A4C]_A3.1_F3.1_[T7A]_T3.1] it was greater than 2300 nM; in that of ACAAACUGCAUAAAACAAAC (ssRNA) [Ib_S3_P3E.1_K3.1_C3.1_H3.1_[T3C]_A3.1_F3.1_[T7A]_T3.1], greater than 2300 nM; in that of ACAAACUGUCUAUUACAAAC (ssRNA) [Ib_S3_P3E.1_K3.1_C3.1_H3.1_[A4C]_A3.1_F3.1_[A8T]_T3.1], 116 nM. In the case of ACAAACCCUAUAUAACAAAC (ssRNA) [Ib_S3_P3E.1_K3.1_C3.1_H3.1_[T1C]_[G2C]_A3.1_F3.1_T3.1] it was greater than 2300 nM; in that of ACAAACCGUAUAUUACAAAC (ssRNA) [Ib_S3_P3E.1_K3.1_C3.1_H3.1_[T1C]_A3.1_F3.1_[A8T]_T3.1], 78.5 nM. In the case of ACAAACCGUAUAGAACAAAC (ssRNA) [Ib_S3_P3E.1_K3.1_C3.1_H3.1_[T1C]_A3.1_F3.1_[T7G]_T3.1] it was greater than 2300 nM; in that of ACAAACUGCAUAUUACAAAC (ssRNA) [Ib_S3_P3E.1_K3.1_C3.1_H3.1_[T3C]_A3.1_F3.1_[A8T]_T3.1], 98.9 nM. ACAAACCGUCUAUAACAAAC (ssRNA) [Ib_S3_P3E.1_K3.1_C3.1_H3.1_[T1C]_[A4C]_A3.1_F3.1_T3.1] displayed a Kd greater than 2300 nM. In the case of ACAAACCUUAUAUAACAAAC (ssRNA) [Ib_S3_P3E.1_K3.1_C3.1_H3.1_[T1C]_[G2T]_A3.1_F3.1_T3.1] it was greater than 2300 nM. Turning to ACAAACUUUAUAUUACAAAC (ssRNA) [Ib_S3_P3E.1_K3.1_C3.1_H3.1_[G2T]_A3.1_F3.1_[A8T]_T3.1], binding was put at a Kd of 704 nM. That is a sub-micromolar value. In the case of ACAAACUGCAUAUGACAAAC (ssRNA) [Ib_S3_P3E.1_K3.1_C3.1_H3.1_[T3C]_A3.1_F3.1_[A8G]_T3.1] it was greater than 2300 nM.

ACAAACUGUCUACAACAAAC (ssRNA) [Ib_S3_P3E.1_K3.1_C3.1_H3.1_[A4C]_A3.1_F3.1_[T7C]_T3.1] yielded a Kd greater than 2300 nM.

ACAAACUGUCUAGAACAAAC (ssRNA) [Ib_S3_P3E.1_K3.1_C3.1_H3.1_[A4C]_A3.1_F3.1_[T7G]_T3.1] had a Kd greater than 2300 nM.
